The test system of one data set is human Hsp90β. Kind of data set: Hsp90 ATPase assay, human Hsp90β. The conditions noted are these: 10 μM Hsp90β, 40 μM RPAP3; % maximum activity of wild type. It is filed as biochemical.
For a further data set, the target named is full-length Hsp90 dimer. Kind of data set: ITC, Spagh/RPAP3 binding to full-length Hsp90 dimer. As to conditions: 500 μM yeast Hsp90 into 20 μM Spagh/RPAP3^120–395, 10 mM Tris pH 7.5, 5 mM NaCl, ~1:2 molar ratio. The method, then:
Heat of interaction was measured on an ITC200 microcalorimeter (Microcal) under the same buffer conditions (20 mM Tris, pH 7.5, containing 5 mM NaCl). Aliquots of the Tel2 peptides at 350 μM were injected into 30 μM of Pih1 at 30°C. Interactions with Tah1 or Spagh/RPAP3^120–395 were performed in 10 mM Tris pH 7.5 and 5 mM NaCl at 10°C and 30°C. Aliquots of 600 μM Tah1 were injected into 40 μM of yeast Hsp90, 400 μM of SRMEEVD injected into 30 μM Tah1, 301 μM yeast Hsp90 injected into 25 μM yeast Tah1-Pih1 complex, and 400 μM SRMEEVD injected into 30 μM yeast Tah1-Pih1 complex. For Spagh/RPAP3^120–395 experiments, aliquots of 500 μM yeast Hsp90 were injected into 20 μM Spagh/RPAP3^120–395 or 2 mM […] into 80 μM Spagh/RPAP3^120–395 or mutants (N172E, N321E, and N172E-N321E). Heats of dilution were determined by diluting injectant into buffer. Data were fitted using a curve-fitting algorithm (Microcal Origin). ATPase assays were previously described ([Prodromou et al., 1999]).
(In general: In ITC the heat of successive injections is recorded.)

“Also recorded” adds a separate entry of the source.

B1: Spagh/RPAP3: tandem TPR region of human Spagh/RPAP3, residues 120–395 (protein)
chain: ESEEDGIHVDSQKALVLKEKGNKYFKQGKYDEAIDCYTKGMDADPYNPVLPTNRASAYFRLKKFAVAESDCNLAVALNRSYTKAYSRRGAARFALQKLEEAKKDYERVLELEPNNFEATNELRKISQALASKENSYPKEADIVIKSTEGERKQIEAQQNKQQAISEKDRGNGFFKEGKYERAIECYTRGIAADGANALLPANRAMAYLKIQKYEEAEKDCTQAILLDGSYSKAFARRGTARTFLGKLNEAKQDFETVLLLEPGNKQAVTELSKIKK
modifications: left off: GST, end not stated, state not stated
Consider B1, for which the “effect on ATPase activity of human Hsp90β (in words)” value with human Hsp90β is on record as “failed to show any strong regulatory effect; also recorded: no major effect”. Moreover, the Kd (in general, the constant that tells how readily two partners part at equilibrium) on full-length Hsp90 dimer turned out to be 6.8 µM.
